These results are taken from publication PMC12337344.

What is called stoichiometry N is the number of molecules, sites or subunits per partner or assembly.

Assay [1] has as its target MBP-tagged G2L4 RT R191E/I202E (Pseudomonas aeruginosa). As to the kind of experiment: SEC; gel filtration profiles of MBP-tagged WT and RT3a mutant G2L4 RTs (SI Appendix, Fig. S4 A and B).
Assay [2] concerns the target G2L4 RT NTE mutant (R12A, Y15A, R19A) (Pseudomonas aeruginosa). As to the kind of experiment: native gel or EMSA; nondenaturing gel of WT and mutant G2L4 RT proteins; proportions running as monomer or dimer (SI Appendix, Fig. S10C).
Assay [3] deals with G2L4 RT (Pseudomonas aeruginosa group II intron-like reverse transcriptase), full-length, as crystallised (Pseudomonas aeruginosa). Put plainly: SEC; size-exclusion chromatography comparing G2L4 RT to GII RT (SI Appendix, Fig. S1A).
Assay [4] deals with G2L4 RT with deletion of C-terminal residues 401 to 411 (Pseudomonas aeruginosa). As to the kind of experiment: not stated; dimer state of G2L4 RT after removal of the MBP tag and after deletion of residues 401 to 411 (SI Appendix, Fig. S10 A and B).
Assay [5] addresses G2L4 RT Thumb mutant (R397A, R398A, R404A) (Pseudomonas aeruginosa). As to the kind of experiment: native gel or EMSA; nondenaturing gel of WT and mutant G2L4 RT proteins; proportions running as monomer or dimer (SI Appendix, Fig. S10C).
Assay [6] has as its target G2L4 RT NTE + Thumb mutant (R12A, Y15A, R398A) (Pseudomonas aeruginosa). The description is as above.
For assay [7], the target named is G2L4 RT without the N-terminal MBP tag (Pseudomonas aeruginosa). Put plainly: not stated; dimer state of G2L4 RT after removal of the MBP tag and after deletion of residues 401 to 411 (SI Appendix, Fig. S10 A and B).
Assay [8] has as its target MBP-tagged wild-type G2L4 RT (Pseudomonas aeruginosa). Put plainly: native gel or EMSA; nondenaturing gel of WT and mutant G2L4 RT proteins; proportions running as monomer or dimer (SI Appendix, Fig. S10C). (In general: A gel shift assay detects complexes by their altered migration in electrophoresis.)
The target is the same in assay [9]. Put plainly: SEC; gel filtration profiles of MBP-tagged WT and RT3a mutant G2L4 RTs (SI Appendix, Fig. S4 A and B). In general terms: In gel filtration, larger molecules generally elute earlier.
In assay [10] the target is G2L4 RT with an A instead of an I at the active site (Pseudomonas aeruginosa). As to the kind of experiment: native gel or EMSA; nondenaturing gel of WT and mutant G2L4 RT proteins; proportions running as monomer or dimer (SI Appendix, Fig. S10C).
The target in assay [11] is MBP-tagged G2L4 RT R190E/R191E (Pseudomonas aeruginosa). As to the kind of experiment: SEC; gel filtration profiles of MBP-tagged WT and RT3a mutant G2L4 RTs (SI Appendix, Fig. S4 A and B).
Assay [12] addresses MBP-tagged G2L4 RT R190E/I202E (Pseudomonas aeruginosa). Described as above.

For MBP-tagged G2L4 RT R191E/I202E (enzyme), the stoichiometry N in assay [1] came to 2.
In the case of “G2L4 RT NTE mutant (R12A, Y15A, R19A) (enzyme)”, in [2], the percent of the protein running as monomers amounted to 12%.
In assay [3], “G2L4 RT (Pseudomonas aeruginosa group II intron-like reverse transcriptase), full-length, as crystallised (enzyme)” registered a stoichiometry N of 2.
“G2L4 RT with deletion of C-terminal residues 401 to 411 (domain or fragment)” showed a stoichiometry N in [4] of 2.
For “G2L4 RT Thumb mutant (R397A, R398A, R404A) (enzyme)”, in assay [5], the percent of the protein running as monomers was determined as 35%.
On to “G2L4 RT NTE + Thumb mutant (R12A, Y15A, R398A) (enzyme)”, for which the percent of the protein running as monomers in assay [6] turned out to be 54%.
Take “G2L4 RT without the N-terminal MBP tag (enzyme)”: the stoichiometry N in [7] stood at 2.
Turning to MBP-tagged wild-type G2L4 RT (enzyme), the percent of the protein running as monomers in assay [8] was < 7%. The substance further registered a stoichiometry N in [9] of 2.
On to “G2L4 RT with an A instead of an I at the active site (enzyme)”, for which the percent of the protein running as monomers in assay [10] is < 7%.
In [11], MBP-tagged G2L4 RT R190E/R191E (enzyme) gave a stoichiometry N of 2.
Substance MBP-tagged G2L4 RT R190E/I202E (enzyme) showed a stoichiometry N in assay [12] of 2.
